Patent US20150253303A1 (FORSCHUNGSVERBUND BERLIN E V, published 2015)

B1: LRRC8A (leucine-rich repeat-containing protein 8, family member A), human (other, UniProt Q8IWT6 1-810, looked up)
chain: MIPVTELRYFADTQPAYRILKPWWDVFTDYISIVMLMIAVFGGTLQVTQDKMICLPCKWVTKDSCNDSFRGWAAPGPEPTYPNSTILPTPDTGPTGIKYDLDRHQYNYVDAVCYENRLHWFAKYFPYLVLLHTLIFLACSNFWFKFPRTSSKLEHFVSILLKCFDSPWTTRALSETVVEESDPKPAFSKMNGSMDKKSSTVSEDVEATVPMLQRTKSRIEQGIVDRSETGVLDKKEGEQAKALFEKVKKFRTHVEEGDIVYRLYMRQTIIKVIKFILIICYTVYYVHNIKFDVDCTVDIESLTGYRTYRCAHPLATLFKILASFYISLVIFYGLICMYTLWWMLRRSLKKYSFESIREESSYSDIPDVKNDFAFMLHLIDQYDPLYSKRFAVFLSEVSENKLRQLNLNNEWTLDKLRQRLTKNAQDKLELHLFMLSGIPDTVFDLVELEVLKLELIPDVTIPPSIAQLTGLKELWLYHTAAKIEAPALAFLRENLRALHIKFTDIKEIPLWIYSLKTLEELHLTGNLSAENNRYIVIDGLRELKRLKVLRLKSNLSKLPQVVTDVGVHLQKLSINNEGTKLIVLNSLKKMANLTELELIRCDLERIPHSIFSLHNLQEIDLKDNNLKTIEEIISFQHLHRLTCLKLWYNHIAYIPIQIGNLTNLERLYLNRNKIEKIPTQLFYCRKLRYLDLSHNNLTFLPADIGLLQNLQNLAITANRIETLPPELFQCRKLRALHLGNNVLQSLPSRVGELTNLTQIELRGNRLECLPVELGECPLLKRSGLVVEEDLFNTLPPEVKERLWRADKEQA
notes: whole, on cells; Used for endogenous LRRC8A and for transfected LRRC8A; Co-IPs were done on detergent lysates; also called endogenous LRRC8A; native LRRC8A

Columns and labels:
[1] = target: T1, KCC1 plasma membrane ion transporter, endogenous in HEK cells (UniProt Q9UP95 1-1085, limits assumed); assay: immunoprecipitation with LRRC8A antibody from WT HEK cell lysate, Western blot
T1 construct: whole, on cells; also called SLC12A4
T1 sequence (looked up): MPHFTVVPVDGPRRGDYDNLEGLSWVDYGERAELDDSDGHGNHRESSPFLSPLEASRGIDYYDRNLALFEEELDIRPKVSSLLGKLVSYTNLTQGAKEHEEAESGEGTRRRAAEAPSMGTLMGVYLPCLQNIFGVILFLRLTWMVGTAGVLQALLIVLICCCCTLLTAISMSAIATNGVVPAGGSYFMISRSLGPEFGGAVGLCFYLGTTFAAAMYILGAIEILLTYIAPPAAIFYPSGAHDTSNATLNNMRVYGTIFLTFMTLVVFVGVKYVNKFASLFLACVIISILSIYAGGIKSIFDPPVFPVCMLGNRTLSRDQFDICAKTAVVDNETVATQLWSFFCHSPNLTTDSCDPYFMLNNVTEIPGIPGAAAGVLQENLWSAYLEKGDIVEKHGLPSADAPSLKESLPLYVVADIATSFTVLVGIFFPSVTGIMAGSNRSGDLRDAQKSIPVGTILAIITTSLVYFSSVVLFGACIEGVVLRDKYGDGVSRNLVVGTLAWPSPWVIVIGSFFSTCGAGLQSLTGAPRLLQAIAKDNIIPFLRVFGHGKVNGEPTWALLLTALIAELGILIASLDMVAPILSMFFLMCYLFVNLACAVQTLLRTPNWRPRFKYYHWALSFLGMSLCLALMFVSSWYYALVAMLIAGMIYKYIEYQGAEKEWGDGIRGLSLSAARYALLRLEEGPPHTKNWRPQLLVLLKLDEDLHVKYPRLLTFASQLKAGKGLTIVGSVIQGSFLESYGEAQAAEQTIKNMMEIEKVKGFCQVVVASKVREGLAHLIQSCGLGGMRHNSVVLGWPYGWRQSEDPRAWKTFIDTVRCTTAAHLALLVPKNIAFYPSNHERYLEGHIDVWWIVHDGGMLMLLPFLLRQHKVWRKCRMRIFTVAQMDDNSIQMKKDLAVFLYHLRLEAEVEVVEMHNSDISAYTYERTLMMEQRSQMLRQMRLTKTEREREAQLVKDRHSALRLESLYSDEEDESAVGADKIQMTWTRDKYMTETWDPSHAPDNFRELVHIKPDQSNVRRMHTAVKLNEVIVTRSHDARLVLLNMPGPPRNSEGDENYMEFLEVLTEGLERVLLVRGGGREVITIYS

[2] = target: LRRC8C-GFP (human LRRC8C fused C-terminally to GFP) (human, UniProt Q8TDW0 1-803; P42212 1-238 = GFP); assay: cell-based or functional assay
[3] = target: LRRC8D-GFP (human LRRC8D fused C-terminally to GFP) (human, UniProt Q7L1W4 1-858; P42212 1-238 = GFP); assay: cell-based or functional assay
[4] = target: LRRC8E-GFP (human LRRC8E fused C-terminally to GFP) (human, UniProt Q6NSJ5 1-796; P42212 1-238 = GFP); assay: cell-based or functional assay
[5] = target: GFP-ClC-1 (human ClC-1 Cl- channel in pEGFP-C1) (human, UniProt P42212 1-238 = GFP; P35523 1-988); assay: co-immunoprecipitation from double-transfected HEK cells, Western blot
Excerpt: The changed banding pattern of the mutant might result from altered posttranslational modifications. n.t., non-transfected. (C) Immunofluorescence using HA antibody of non-permeabilized versus permeabilized HeLa cells transfected with GFPLRRC8A carrying an HA-tag as indicated. Overlays of GFP (green) and HA (red) labeling. Insets show exclusively HA-staining. Scale bar, 20 μm. (D) LRRC8A co-precipitated epitopetagged LRRC8B through LRRC8E in double-transfected HEK cells. LRRC8B and LRRC8D were poorly expressible. […] (F) Epitope-tagged LRRC8B through LRRC8E co-precipitated LRRC8A. (G) Heteromerization of endogenous LRRC8 proteins. LRRC8A co-precipitated LRRC8E (for which a suitable antibody was available) in immunoprecipitation with an LRRC8A antibody from wild-type (WT) HEK cell lysate, but not from the LRRC8A−/− knockout (KO, clone 3E7). […] Lysate equivalent to 25% of input was loaded as reference (input).
For co-immunoprecipitation, HEK cells were co-transfected with plasmids (6 μg total) encoding myc-tagged or untagged LRRC8A and N-terminal fusion constructs of LRRC8A-E or ClC-1 (or soluble GFP) on 10 cm dishes using PEI as described above. […] After four washes with 500 μl IP buffer, precipitates were eluted in 40 μl Lämmli sample buffer, separated by SDS-PAGE and analyzed by Western blot as indicated. […]

[6] = target: B1; assay: immunoprecipitation of endogenous proteins from WT HEK lysate

In the case of B1, the binding result [1] is reported as “no binding”, the “V1/2 from Boltzmann fits (voltage-dependent inactivation of ICl(swell))” value (from here on “V1/2 from Boltzmann fits”) [2] is reported as 116 mV and the “V1/2 from Boltzmann fits” value [3] is reported as 72.4 mV. For the same binder, the “V1/2 from Boltzmann fits” value [4] was 45.9 mV and the binding result [5] was “no binding”.

B2: LRRC8E, endogenous (native) human protein (other, UniProt Q6NSJ5 1-796, looked up)
chain: MIPVAEFKQFTEQQPAFKVLKPWWDVLAEYLTVAMLMIGVFGCTLQVTQDKIICLPNHELQENLSEAPCQQLLPRGIPEQIGALQEVKGLKNNLDLQQYSFINQLCYETALHWYAKYFPYLVVIHTLIFMVCTSFWFKFPGTSSKIEHFISILGKCFDSPWTTRALSEVSGENQKGPAATERAAATIVAMAGTGPGKAGEGEKEKVLAEPEKVVTEPPVVTLLDKKEGEQAKALFEKVKKFRMHVEEGDILYTMYIRQTVLKVCKFLAILVYNLVYVEKISFLVACRVETSEVTGYASFCCNHTKAHLFSKLAFCYISFVCIYGLTCIYTLYWLFHRPLKEYSFRSVREETGMGDIPDVKNDFAFMLHLIDQYDSLYSKRFAVFLSEVSESRLKQLNLNHEWTPEKLRQKLQRNAAGRLELALCMLPGLPDTVFELSEVESLRLEAICDITFPPGLSQLVHLQELSLLHSPARLPFSLQVFLRDHLKVMRVKCEELREVPLWVFGLRGLEELHLEGLFPQELARAATLESLRELKQLKVLSLRSNAGKVPASVTDVAGHLQRLSLHNDGARLVALNSLKKLAALRELELVACGLERIPHAVFSLGALQELDLKDNHLRSIEEILSFQHCRKLVTLRLWHNQIAYVPEHVRKLRSLEQLYLSYNKLETLPSQLGLCSGLRLLDVSHNGLHSLPPEVGLLQNLQHLALSYNALEALPEELFFCRKLRTLLLGDNQLSQLSPHVGALRALSRLELKGNRLEALPEELGNCGGLKKAGLLVEDTLYQGLPAEVRDKMEEE
notes: whole, on cells; Untagged endogenous protein in cell lysates; also called native LRRC8E
B2: binds [6].
